Results: US20180273635A1 (Zymeworks, published 2018)

Legend:
[1] = biological target: T1, HER2 expressed on the surface of cells (human, UniProt P04626 23-1255); test: cell-based or functional assay
[2] = biological target: T1, HER2 expressed on the surface of cells; test: cell-based or functional assay; remark: listed apart in the source
[3] = biological target: T1, HER2 expressed on the surface of cells; test: cell-based or functional assay; remark: listed apart in the source
[4] = biological target: T1, HER2 expressed on the surface of cells; test: cell-based or functional assay; remark: listed apart in the source
[5] = biological target: T1, HER2 expressed on the surface of cells; test: cell-based or functional assay; remark: listed apart in the source
[6] = biological target: T1, HER2 expressed on the surface of cells; test: flow cytometry on BT474 cells, n=1
Procedure: (§1) Binding of the test antigen-binding constructs to the surface of HER2+ cells was determined by flow cytometry. Cells were washed with PBS and resuspended in DMEM at 1×10⁵ cells/100 μl. 100 μl cell suspension was added into each microcentrifuge tube, followed by 10 μl/tube of the antigen-binding constructs. The tubes were incubated for 2 hr at 4° C. on a rotator. The microcentrifuge tubes were centrifuged for 2 min 2000 RPM at room temperature and the cell pellets washed with 500 μl media. Each cell pellet was resuspended in 100 μl of fluorochrome-labelled secondary antibody diluted in media to 2 μg/sample. The samples were then incubated for lhr at 4° C. on a rotator. After incubation, the cells were centrifuged for 2 min at 2000 rpm and washed in media. The cells were resuspended in 500 μl media, filtered, transferred to a tube containing 5 μl propidium iodide (PI) and analyzed on a BD LSR II flow cytometer according to the manufacturer's instructions. The B50 of the tested antigen-binding constructs was assessed by FACS with data analysis and curve fitting performed in GraphPad Prism. The experiment was carried out once (n=1) in SKBr3 cells, and twice (n=2) in SKOV3, MCF7, and BT-474 cells.
(§2) The experiment was performed once (n=1) in each cell line.

[7] = biological target: T1, HER2 expressed on the surface of cells; test: flow cytometry on SKBR3 cells, n=1
Procedure: as §1, §2

[8] = biological target: T1, HER2 expressed on the surface of cells; test: flow cytometry on MCF7 cells (low HER2), n=1
Procedure: as §1, §2

[9] = biological target: T1, HER2 expressed on the surface of cells; test: flow cytometry on BT474 cells, n=1; B50 = concentration at 50% of Bmax
Procedure: as §1, §2

[10] = biological target: T1, HER2 expressed on the surface of cells; test: flow cytometry on SKBR3 cells, n=1; B50 = concentration at 50% of Bmax
Procedure: as §1, §2

[11] = biological target: T1, HER2 expressed on the surface of cells; test: flow cytometry on MCF7 cells (low HER2), n=1; B50 = concentration at 50% of Bmax
Procedure: as §1, §2

| growth inhibition IC50 (potency), SKBR3 cells [1] [nM] | growth inhibition span ratio to WT, SKBR3 cells [1] [fold] | growth inhibition IC50 (potency), BT474 cells [2] [nM] | growth inhibition span ratio to WT, BT474 cells [2] [fold] | growth inhibition IC50 (potency), BT474 cells + EGF [3] [nM] | growth inhibition span ratio to WT, BT474 cells + EGF [3] [fold] | growth inhibition IC50 (potency), NCI-N87 cells, 5 days [4] [nM] | increase in efficacy with respect to the WT, NCI-N87 cells [4] [fold] | increase in potency with respect to the WT, NCI-N87 cells [4] [fold] | Bmax [6] [MFI] | Bmax [7] [MFI] | Bmax [8] [MFI] | B50 [9] [nM] | B50 [10] [nM] | B50 [11] [nM] | Binder | growth inhibition span (percentage of cells killed), SKBR3 cells [1] [%] | growth inhibition span (percentage of cells killed), BT474 cells [2] [%] | growth inhibition span (percentage of cells killed), BT474 cells + EGF [3] [%] | growth inhibition span (percentage of cells killed), NCI-N87 cells [4] [%] | growth inhibition span (percentage of cells killed), MDA-MB-175 cells [5] [%] |
| --- | --- | --- | --- | --- | --- | --- | --- | --- | --- | --- | --- | --- | --- | --- | --- | --- | --- | --- | --- | --- |
| 0.25 | 1.5 | 0.51 | 3 | 1.1 | 1.8 | 4.1 | 2.2 | 2.2 | 23000 | 29000 | 670 | 2.9 | 14 | 1.4 | Variant 14019 (antibody, name in Kabat numbering, V domains shown, also called v14019) VH: EVQLVESGGGLVQPGGSLRLSCAASGFTFQDYTMDWVRQAPGKGLEWVGDVNPNSGGSIYNQRFKGRFTFSVDRSWNTLYLQMNSLRAEDTAVYYCARNLGPSFYFDYWGQGTLVTVSS VL: DIQMTQSPSSLSASVGDRVTITCKASQDVSIGVAWYQQKPGKAPKLLIYSASYRYTGVPSRFSGSGSGTDFTLTISSLQPEDFATYYCQQYYIYPYTFGQGTKVEIKR | 25 | 32 | 33 | 37 | 85 |
| 0.17 | 1.6 | 0.55 | 2.6 | 1.7 | 2 | 3.5 | 3.2 | 2.6 | 22000 | 33000 | 640 | 4.1 | 21 | 2.6 | Variant 14020 (antibody, name in Kabat numbering, V domains shown, also called v14020) VH: EVQLVESGGGLVQPGGSLRLSCAASGFTFQDYTMDWVRQAPGKGLEWVGDVNPNSGGSIYNQRFKGRFTFSVDRSKNTLYLQMNSLRAEDTAVYYCARNLGPWFYFDYWGQGTLVTVSS VL: DIQMTQSPSSLSASVGDRVTITCKASQDVSIGVAWYQQKPGKAPKLLIYSASYRYTGVPSRFSGSGSGTDFTLTISSLQPEDFATYYCQQYYIYPYTFGQGTKVEIKR | 26 | 27 | 37 | 55 | 80 |
| 0.28 | 1.7 | 0.66 | 2.8 | 1.7 | 1.8 | 2.1 | 1.9 | 4.3 | 22000 | 32000 | 680 | 2.4 | 8.4 | 0.9 | Variant 14018 (antibody, name in Kabat numbering, V domains shown, also called v14018) VH: EVQLVESGGGLVQPGGSLRLSCAASGFTFTDYTMDWVRQAPGKGLEWVGDVNPNSGGSIYNQRFKGRFTFSVDRSWNTLYLQMNSLRAEDTAVYYCARNLGPSFYFDYWGQGTLVTVSS VL: DIQMTQSPSSLSASVGDRVTITCKASQDVSIGVAWYQQKPGKAPKLLIWSASYRYTGVPSRFSGSGSGTDFTLTISSLQPEDFATYYCQQYYIYPYTFGQGTKVEIKR | 29 | 30 | 33 | 32 | 85 |
